PMC2855743 (Journal of molecular biology, 2010)
Like-named read-outs stand apart in the source and are kept apart here.

T1: ComAC (ComA C-terminal DNA-binding domain) (Bacillus subtilis, UniProt P14204 146-214)
T1 sequence: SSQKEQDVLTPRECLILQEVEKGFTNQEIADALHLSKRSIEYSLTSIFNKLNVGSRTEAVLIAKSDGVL


Columns and labels:
SEC = biological target: the molecule itself; experiment: SEC
[1] = biological target: T1, ComAC (ComA C-terminal DNA-binding …); experiment: SPR
[2] = biological target: T1, ComAC (ComA C-terminal DNA-binding …); experiment: SPR; remark: listed apart in the source

Binder | stoichiometry N (SEC) | Kd [2] | also measured
N-terminal domain of competence protein A (ComAN, residues 1-126) (domain or fragment, Bacillus subtilis, UniProt P14204 1-126, looked up) MKKILVIDDHPAVMEGTKTILETDSNLSVDCLSPEPSEQFIKQHDFSSYDLILMDLNLGGEVNGMELSKQILQENPHCKIIVYTGYEVEDYFEEAIRAGLHGAISKTESKEKITQYIYHVLNGEIL | 2 | – | –
N-terminal domain of competence protein A with asparagine at position 55 (ComAN-D55N, residues 1-126) (domain or fragment, Bacillus subtilis, UniProt P14204 1-126, looked up) MKKILVIDDHPAVMEGTKTILETDSNLSVDCLSPEPSEQFIKQHDFSSYDLILMNLNLGGEVNGMELSKQILQENPHCKIIVYTGYEVEDYFEEAIRAGLHGAISKTESKEKITQYIYHVLNGEIL | 2 | – | –
Full-length competence protein A (ComAFL) (natural protein, Bacillus subtilis, UniProt P14204 1-214, looked up) MKKILVIDDHPAVMEGTKTILETDSNLSVDCLSPEPSEQFIKQHDFSSYDLILMDLNLGGEVNGMELSKQILQENPHCKIIVYTGYEVEDYFEEAIRAGLHGAISKTESKEKITQYIYHVLNGEILVDFAYFKQLMTQQKTKPAPSSQKEQDVLTPRECLILQEVEKGFTNQEIADALHLSKRSIEYSLTSIFNKLNVGSRTEAVLIAKSDGVL | 2 | – | –
Consensus RE1-RE3 (dsDNA) DNA 1: TTGCGGCATCCCGCAAGAAACTTTGCGG DNA 2: CCGCAAAGTTTCTTGCGGGATGCCGCAA | – | – | Kd [1]: 11.3 nM
Wild type srfA (dsDNA) DNA 1: TTTCGGCATCCCGCATGAAACTTTTCAC DNA 2: GTGAAAAGTTTCATGCGGGATGCCGAAA | – | 9.59 nM | –
Consensus RE3 (dsDNA) DNA 1: TTTCGGCATCCCGCATGAAACTTTGCGG DNA 2: CCGCAAAGTTTCATGCGGGATGCCGAAA | – | 4.94 nM | –
